Reference: patent publication US20150307576A1, “FGF-10 COMPLEXES” (PERMEON BIOLOGICS, INC., priority 2012, published 2015)
Substitutions are numbered along the chain they refer to. Names may count otherwise. Where two headings read alike, the source gives them in different places.

Assays:
[1] = system: SKOV-3 ovarian cancer cells; assay: SKOV-3 cell viability, MTS assay; type: cell-based, human; conditions: 100 uM, 4-hour treatment, 3 days of growth
[2] = system: Hela cells; assay: Cell penetrating activity, anti-myc flow cytometry; type: cell-based; conditions: 1 uM, 20 minutes
Experimental: On the day prior to the assay, 10^6 Hela cells were plated in each well of a 6-well plate and incubated in the 37° C. CO2 incubator overnight. The cells were washed once with PBS and then were replenished with 1 mL of serum-free DEMEM (A) or media containing 1 uM of the FGF10 domain construct FGF10-myc (B, C, and D) and were incubated for 20 minutes in the 37° C. CO2 incubator. The cells were then washed three times with ice-cold PBS. For (C) and (D), cells were treated with 0.25% trypsin/EDTA and washed three times with PBS. The cells in (D) were fixed for 10 minutes with 1 mL 4% formaldehyde and permealized for 5 minutes with 0.2% saponin. Then 10 uL of 0.1 mg/mL FITC labeled chicken polyclonal anti-myc tag antibody (Abcam #1394) was added to all the cells and incubated at 4° C. in the dark for 2 hours. The cells were washed three times with ice cold PBS. Cells in (A) and (B) were detached with 1 mL 10 mM EDTA. Cells were analyzed using a BD Accuri™ C6 flow cytometer.

[3] = Cellular distribution, microautoradiography (MARG); type: in vivo, mice
Experimental: To obtain specific cell-type uptake information in select organs, microautoradiography analysis was performed on selected organs collected at various time points. For microautoradiography analysis (MARG), animals were anesthetized and blood collected, as described above. Tissue samples are trimmed to be approximately 0.5 cm^2, placed into cryosectioning embedding media on a cryosectioning sample holder, and frozen in isopentane that is cooled with liquid nitrogen. Frozen samples were stored in liquid nitrogen until analysis by MARG. For analysis, tissues were cryosectioned at 5 μm under darkroom conditions, and collected onto glass slides that are pre-coated with photographic emulsion (Kodak NTB photographic emulsion). Slides were placed in sealed light-safe slide boxes and allowed to expose the photographic emulsion for 7 days before being developed, fixed and stained with hematoxylin and eosin. All slides were examined for cellular localization using light microscopy.

[4] = mouse, in vivo
[5] = Stability following multiple freeze/thaw cycles (protein concentration, analytical SEC); type: physicochemical; conditions: two freeze/thaw cycles
Experimental: The stability of this cell penetrating domain of FGF10 was evaluated following multiple freeze/thaw cycles. To do this, protein concentration measurements and analytical size exclusion chromatography were carried out comparing protein which had undergone zero, one, or two freeze/thaw cycles. […] The study indicated about 75% stability of this protein after two freeze/thaw cycles.
Purified protein was subjected to the indicated number of freeze/thaw cycles (each freeze/thaw cycle consisted of snap-freezing the protein in liquid nitrogen, placing it at −80° C. for a minimum of two hours, and then thawing it on ice) and analyzed by size exclusion chromatography. After each thaw, the protein was subjected to 20,000×g centrifugation to remove any precipitation. The protein concentration of each sample was measured by A280, considering the extinction coefficient (24540) and molecular weight (19.57 kDa). In each case 40 μL of the protein was applied to a Superdex 75 10/300 GL column (GE Healthcare). The column running buffer was the same as the protein storage buffer (20 mM Hepes, pH 7.5, 0.5 M NaCl).

[6] = mouse, in vivo; remark: listed apart in the source
[7] = system: HepG2, Hela and SW626 cells; assay: Internalization of p16 fusion proteins, flow cytometry; type: cell-based; conditions: 2 uM, overnight
Experimental: On the day prior to the assay, HepG2 (hepatoma), Hela cells, and 10^6 SW626 cells (ovarian) were plated in each well of a 6-well plate and incubated in the 37° C. CO2 incubator. The cells were washed once with PBS and then were replenished with 2 mL of growth media containing 2 uM of p16, +36GFP-p16 or FGF10-p16 proteins and were incubated overnight in the 37° C. CO2 incubator. The cells were then washed once with PBS and detached with 0.25% trypsin/EDTA. The cells were fixed for 10 minutes with 1 mL 4% formaldehyde and permeabilized for 5 minutes with 0.5 mL 0.4% saponin. Then 2.5 uL of 1 mg/mL FITC labeled chicken polyclonal anti-myc tag antibody (Abcam #1394) was added to all the cells and incubated at 4° C. in the dark for 2 hours, except for cells treated with +36GFP-p16 (GFP itself was used for detection). The cells were washed twice with ice cold PBS and were analyzed using a BD Accuri™ C6 flow cytometer.

[8] = biological target: FGFR2b receptor (Homo sapiens, UniProt P21802); conditions: relative to unmodified FGF10; cited from earlier work
[9] = system: mitogenic activity; conditions: relative to wild-type; cited from earlier work
[10] = system: mitogenic activity; assay: Mitogenic activity of FGF10 variants; conditions: tetramutant vs native FGF10
[11] = trypsin, fixed and permeabilized

Sequence of FGFR2b receptor (P21802 22-822 isoform P21802-3 limits assumed): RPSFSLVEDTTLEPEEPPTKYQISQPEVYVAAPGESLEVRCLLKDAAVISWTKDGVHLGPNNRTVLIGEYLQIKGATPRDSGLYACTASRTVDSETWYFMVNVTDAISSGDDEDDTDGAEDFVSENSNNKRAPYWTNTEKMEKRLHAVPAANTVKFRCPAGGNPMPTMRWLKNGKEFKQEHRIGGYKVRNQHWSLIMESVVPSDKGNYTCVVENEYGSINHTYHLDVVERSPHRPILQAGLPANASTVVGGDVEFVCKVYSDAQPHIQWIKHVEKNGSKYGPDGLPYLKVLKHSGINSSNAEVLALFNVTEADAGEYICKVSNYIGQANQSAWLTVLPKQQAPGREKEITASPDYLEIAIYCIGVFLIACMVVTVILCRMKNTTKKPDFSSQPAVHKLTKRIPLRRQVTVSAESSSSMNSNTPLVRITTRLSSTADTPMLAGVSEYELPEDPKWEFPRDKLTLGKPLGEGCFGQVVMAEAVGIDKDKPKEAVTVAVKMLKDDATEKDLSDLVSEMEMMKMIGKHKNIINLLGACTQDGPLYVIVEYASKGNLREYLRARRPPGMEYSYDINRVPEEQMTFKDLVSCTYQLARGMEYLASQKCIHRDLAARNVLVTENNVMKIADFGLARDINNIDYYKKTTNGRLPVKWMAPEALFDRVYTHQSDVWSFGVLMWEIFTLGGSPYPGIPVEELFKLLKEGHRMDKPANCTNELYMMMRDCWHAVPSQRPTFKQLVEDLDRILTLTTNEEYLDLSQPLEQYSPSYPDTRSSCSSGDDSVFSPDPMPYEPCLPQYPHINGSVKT

CC(=O)c1c(C)c2cnc(Nc3ccc(N4CCNCC4)cn3)nc2n(C2CCCC2)c1=O [PD-0332991]
inhibition of cell proliferation [1]: complete inhibition of cell proliferation

FGF10
cells with protein present on the cell membrane ([2]; no trypsin): 98.8%
cells stained positive for FGF10 after trypsin treatment (internalized) [2, 11]: almost all the cells stained positive
cellular distribution in kidney ([3]; kidney MARG): uniformly distributed throughout the kidney
cellular distribution in liver ([3]; liver MARG): uniformly distributed throughout the liver tissue including in hepatocytes
partitioning between plasma compartment and blood cell compartment [4]: favor the plasma compartment
stability after freeze/thaw cycles ([5]; listed as His6-FGF10-myc): 75%
stability after freeze/thaw cycles ([5]; listed as Hisx6-FGF10-Myc): about 75%
levels of injected protein in liver, spleen, kidney, urinary bladder, adrenal gland, thyroid gland [6]: high levels

B1: FGF10-p16: fusion protein of FGF10 domain and full length human p16, SEQ ID NO: 6 (protein)
chain: MEQKLISEEDLGSGRHVRSYNHLQGDVRWRKLFSFTKYFLKIEKNGKVSGTKKENCPYSILEITSVEIGVVAVKAINSNYYLAMNKKGKLYGSKEFNNDCKLKERIEENGYNTYASFNWQHNGRQMYVALNGKGAPRRGQKTRRKNTSAHFLPMVVHSGHGGGGSGGGGSMEPAAGSSMEPSADWLATAAARGRVEEVRALLEAGALPNAPNSYGRRPIQVMMMGSARVAELLLLHGAEPNCADPATLTRPVHDAAREGFLDTLVVLHRAGARLDVRDAWGRLPVDLAEELGHRDVARYLRAAAGGTRGSNHARIDAAEGPSDIPDGHGHHHHHH
treated cells stained positive [7, 11]: ~30%

B2: FGF10 E158K/K195A: FGF10 mutant with two substitutions E158K/K195A; domain variant in SEQ ID NO: 8 (protein)
chain: GRHVRSYNHLQGDVRWRKLFSFTKYFLKIEKNGKVSGTKKENCPYSILEITSVEIGVVAVKAINSNYYLAMNKKGKLYGSKEFNNDCKLKERIEKNGYNTYASFNWQHNGRQMYVALNGKGAPRRGQKTRRANTSAHFLPMVVHS
decrease in binding to the FGFR2b receptor [8]: approximately 4 fold

B3: FGF10 R78A: FGF10 mutant with one substitution R78A; domain variant in SEQ ID NO: 9 (protein)
chain: B2 chain with R15A, K95E, A132K
mitogenic activity [9]: significant decrease
decrease in binding to the FGFR2b receptor [8]: approximately 4 fold

B4: tetramutant: variant of FGF10 domain with four substitutions at positions 78, 114, 158, 195, SEQ ID NO: 10 (protein)
chain: B2 chain with R15A, T51R, K95A
mitogenic activity [10]: reduced mitogenic activity

B5: p16: human p16 tumor suppressor protein alone, SEQ ID NO: 5 (protein, listed as Homo sapiens)
chain: MEPAAGSSMEPSADWLATAAARGRVEEVRALLEAGALPNAPNSYGRRPIQVMMMGSARVAELLLLHGAEPNCADPATLTRPVHDAAREGFLDTLVVLHRAGARLDVRDAWGRLPVDLAEELGHRDVARYLRAAAGGTRGSNHARIDAAEGPSDIPD
cell penetration [7]: does not
